US20100028370A1 (RAPTOR PHARMACEUTICAL, published 2010)

Target: mLRP/LRPTmMegT mini-receptor (fourth ligand binding and transmembrane domains of LRP1 with the C-terminal … (UniProt Q07954 3293-4444))
Assay: cell-based or functional assay

mLRP/LRPTmMegT mini-receptor (fourth ligand binding and transmembrane domains of LRP1 with the C-terminal …, sequence (Q07954 3293-4444): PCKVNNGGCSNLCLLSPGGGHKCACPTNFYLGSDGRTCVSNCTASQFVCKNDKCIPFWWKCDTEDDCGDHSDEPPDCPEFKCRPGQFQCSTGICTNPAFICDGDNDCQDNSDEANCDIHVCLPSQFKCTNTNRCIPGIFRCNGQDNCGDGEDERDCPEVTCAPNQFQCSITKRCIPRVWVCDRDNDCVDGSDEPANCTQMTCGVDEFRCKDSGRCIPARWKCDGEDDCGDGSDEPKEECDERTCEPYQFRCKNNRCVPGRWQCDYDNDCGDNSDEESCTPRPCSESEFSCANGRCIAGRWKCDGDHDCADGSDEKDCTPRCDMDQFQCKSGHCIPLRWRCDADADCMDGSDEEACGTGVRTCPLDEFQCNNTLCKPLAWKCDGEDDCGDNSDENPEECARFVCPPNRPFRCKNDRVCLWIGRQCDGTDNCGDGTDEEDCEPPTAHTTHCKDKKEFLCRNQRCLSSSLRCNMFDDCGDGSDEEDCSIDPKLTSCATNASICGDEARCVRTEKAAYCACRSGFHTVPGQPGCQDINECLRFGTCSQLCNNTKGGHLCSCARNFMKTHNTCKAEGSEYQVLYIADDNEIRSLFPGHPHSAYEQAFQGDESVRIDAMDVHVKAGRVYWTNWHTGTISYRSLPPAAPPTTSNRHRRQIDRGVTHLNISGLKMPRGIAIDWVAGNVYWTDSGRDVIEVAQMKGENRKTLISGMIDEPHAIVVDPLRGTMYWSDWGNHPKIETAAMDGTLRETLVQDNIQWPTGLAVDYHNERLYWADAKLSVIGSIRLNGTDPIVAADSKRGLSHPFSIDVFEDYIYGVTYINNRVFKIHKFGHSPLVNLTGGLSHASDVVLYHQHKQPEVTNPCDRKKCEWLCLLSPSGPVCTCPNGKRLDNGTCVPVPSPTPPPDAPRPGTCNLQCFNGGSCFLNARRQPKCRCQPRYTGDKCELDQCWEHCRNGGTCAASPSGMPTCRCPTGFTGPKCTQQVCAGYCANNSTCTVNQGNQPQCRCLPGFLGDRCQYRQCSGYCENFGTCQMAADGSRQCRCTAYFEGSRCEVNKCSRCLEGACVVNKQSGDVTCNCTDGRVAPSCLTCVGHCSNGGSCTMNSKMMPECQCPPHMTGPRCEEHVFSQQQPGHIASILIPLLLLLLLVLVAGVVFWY

B1: receptor-associated protein (RAP) (ligand)
chain: YSREKNQPKPSPKRESGEEFRMEKLNQLWEKAQRLHLPPVRLAELHADLKIQERDELAWKKLKLDGLDEDGEKEARLIRNLNVILAKYGLDGKKDARQVTSNSLSGTQEDGLDDPRLEKLWHKAKTSGKFSGEELDKLWREFLHHKEKVHEYNVLLETLSRTEEIHENVISPSDLSDIKGSVLHSRHTELKEKLRSINQGLDRLRRVSHQGYSTEAEFEEPRVIDLWDLAQSANLTDKELEAFREELKHFEAKIEKHNHYQKQLEIAHEKLRHAESVGDGERVSRSREKHALLEGRTKELGYTVKKHLQDLSGRISRARHNEL
- ratio of the apical-to-basolateral to the basolateral-to-apical permeability coefficient of 125I-RAP in MEGt-transfected MDCK cells: 460 fold
